According to the supplement of paper PMC10724198:
± gives the standard deviation of the averaged measurements.

test system: Saccharomyces cerevisiae; assay: protein stability index of tFT-peptide fusion (C-terminal peptide) (PSI (0-1 scale)); higher = more stable (slower turnover); conditions: genetic background: wild type; temperature: 30 C
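Note: PSI is a weighted mean of sequencing reads over stability bins, variants kept only with over 10 reads, mCherry proximal and sfGFP distal, peptide attached via GGGS linker.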

Sequence	protein stability index
LRRKTIEVSGLA	0.573 ± 0.026
LRRLSTGTLSIL	0.724 ± 0.057
LRRMQGTGCPLP	0.643 ± 0.035
LRSARPALLCTP	0.678 ± 0.037
LRSGSLVSLPPL	0.747 ± 0.1
LRTPNIYLSFSP	0.666 ± 0.1
LRTVSPPSASPP	0.689 ± 0.014
LRVVCVVGQRSL	0.554 ± 0.0094
LSDSSDSTLGAI	0.667 ± 0.029
LSFGPISGTPFR	0.661 ± 0.048
LSGLFMAARIFI	0.627 ± 0.06
LSGNLLLSSLLQ	0.654 ± 0.049
LSGVRFDSVFEH	0.729 ± 0.016
LSISGSVHILKD	0.733 ± 0.024
LSLASTGVDSGG	0.743 ± 0.03
LSLHCIYQQIFR	0.822 ± 0.12
LSLPSLLLRLSL	0.644 ± 0.023
LSPCSDFSTFDA	0.771 ± 0.12
LSPLPRLQPASP	0.655 ± 0.071
LSPLTPAPLPPP	0.6675 ± 0.0058
LSPPPPRPTLQF	0.731 ± 0.0092
LSPSPTSHSRLL	0.589 ± 0.024
LSPSSSLTYLSF	0.724 ± 0.07

Sequence	protein stability index
LSPVRRAPCPLG	0.6905 ± 0.0019
LSRLPPTLPRTP	0.699 ± 0.18
LSRPPASPPHPP	0.71468 ± 0.00055
LSRTPLPLPPPS	0.705 ± 0.019
LSSLLPFPPLPC	0.685 ± 0.082
LSSRSDVLTYFV	0.639 ± 0.022
LSTCHSPSLPAT	0.739 ± 0.049
LSTHAPPTRLRL	0.677 ± 0.016
LSTPPLPPPPPP	0.689 ± 0.058
LSVAFFILRVPL	0.573 ± 0.071
LSVGLVPFRWRV	0.6584 ± 0.0017
LSVNAGWLQLCA	0.561 ± 0.018
LSVPVGIRPGRC	0.702 ± 0.018
LSWDVWWYFLSV	0.594 ± 0.0063
LTLPPRPPSPPS	0.675 ± 0.08
LTSATSSGPPHP	0.7232 ± 0.0029
LTVVNFFPLGSP	0.67 ± 0.064
LVDKGSADVLDD	0.632 ± 0.048
LVFLRDFFSLFS	0.71 ± 0.017
LVFSSVVISCDI	0.528 ± 0.0092
LVFVPTLFPPPG	0.662 ± 0.053
LVFYSSLPNFSR	0.6815 ± 0.0024
LVGRRGVVGIVP	0.63 ± 0.075

Sequence	protein stability index
LVGWVCRERELG	0.718 ± 0.06
LVHHPCNTPRVP	0.749 ± 0.018
LVIKNVWHESTY	0.709 ± 0.054
LVKLGSTLSGVG	0.582 ± 0.026
LVLFSRCSPFFL	0.659 ± 0.024
LVLVASVGVGRV	0.556 ± 0.057
LVSEGKRLDVVF	0.581 ± 0.076
LVSGRRWMLGSG	0.6451 ± 0.0023
LVSQLLALCLSV	0.5358 ± 0.00089
LVVALGFDDRAC	0.623 ± 0.027
LVVLGVRGGGGG	0.701 ± 0.047
LWDQFAVSCFGG	0.745 ± 0.016
LWGAGAGPEDVG	0.6983 ± 0.0028
LWGAIGHGNAGP	0.684 ± 0.029
LWGFVEAIGSVL	0.705 ± 0.18
LWGGGVGRVRGV	0.658 ± 0.022
LWGMSDQGGGFR	0.611 ± 0.083
LWLPSTSLIPLI	0.641 ± 0.018
LWRSRSCSGHSF	0.651 ± 0.053
LYDAALHTKIFR	0.634 ± 0.012
LYDCQHTFILSR	0.643 ± 0.047
LYHCFRCYYMPW	0.637 ± 0.033
LYIHFIRSYPTI	0.6354 ± 0.0036

Sequence	protein stability index
LYIYSPFGLFAF	0.562 ± 0.0082
LYPRLAPPTPPS	0.686 ± 0.026
LYTTLCLRSPPH	0.671 ± 0.026
LYVIGGTDLVGG	0.72 ± 0.04
MCNPAYVTSGVI	0.6987 ± 0.0054
MCPRFCPPLRSF	0.686 ± 0.084
MCWFDVSEWGLG	0.754 ± 0.091
MFVRRTDRGGIV	0.7312 ± 0.0069
MGCSARLPLLSS	0.7215 ± 0.0016
MGDGRRMDGVWG	0.6 ± 0.03
MGGGGGLGGGDG	0.613 ± 0.072
MGGYLFLHVGYV	0.614 ± 0.062
MGIKSCSSTCVT	0.857 ± 0.2
MGTRRVGRQGWG	0.708 ± 0.031
MINYGLARKKAR	0.733 ± 0.02
MKKIGNKLKKEK	0.657 ± 0.099
MKKKTTKTKIKK	0.7205 ± 0.0051
MLGGGGGVRVLG	0.706 ± 0.011
MLYFSGLQVTIL	0.622 ± 0.0075
MPTSYDGCDRGH	0.713 ± 0.011
MRCQFDGAVGVC	0.663 ± 0.074
MRKGKGGGPRRR	0.699 ± 0.023
MRPRTSKKPQLE	0.744 ± 0.044

Sequence	protein stability index
MRRKKSGPEYQR	0.678 ± 0.059
MRSRWFAREFGK	0.659 ± 0.07
MSCLSDFPVCFL	0.726 ± 0.037
MSGVWLWVGGGG	0.73 ± 0.078
MSVRGGEGVVGE	0.614 ± 0.025
MSWLGLGLWSVF	0.808 ± 0.069
MVLTVIHFDCDI	0.596 ± 0.014
MVTGELVQLLLV	0.528 ± 0.0048
MWVGLWSVGLCG	0.717 ± 0.011
MYAWPISPRPLL	0.738 ± 0.052
MYTNYLYDVAVE	0.597 ± 0.044
NARPSPRSHSLE	0.6921 ± 0.0065
NDGLKVLKETSP	0.675 ± 0.027
NDKPKKKYRKTR	0.64 ± 0.018
NEVDSRGWTTLA	0.59 ± 0.021
NFAIYPTLYKYD	0.667 ± 0.016
NFDNGAGLNRGG	0.6733 ± 0.0059
NFEVHRCGISLR	0.681 ± 0.0075
NGDRGQWGMNQR	0.708 ± 0.028
NGLLRPALVPNY	0.693 ± 0.012
NGLRILICNTTP	0.697 ± 0.03
NGPYKAGSIVLI	0.664 ± 0.027
NGRENVHEWQRG	0.711 ± 0.018

Sequence	protein stability index
NGRTSRVMKDRK	0.6793 ± 0.0035
NGSLRVVSGGFC	0.63 ± 0.048
NGSPFFFNRLFT	0.702 ± 0.033
NGTGGGSSLAFG	0.644 ± 0.019
NGWGKWTKTVCQ	0.646 ± 0.02
NHIASQASRRGR	0.637 ± 0.069
NHPCPFSELPQL	0.758 ± 0.11
NIKHTDKPNHIN	0.609 ± 0.011
NIKKKINNTVKN	0.666 ± 0.0073
NIMSSFFLTFHR	0.719 ± 0.017
NINYETNKQTDR	0.668 ± 0.022
NISSFKHVLAYK	0.624 ± 0.06
NKIVKYSKIRYK	0.678 ± 0.018
NKKKKENTKKRK	0.721 ± 0.18
NKKKKKKRKRVK	0.701 ± 0.049
NKKKKKKRNGAP	0.658 ± 0.028
NKKKNKKKNKKK	0.676 ± 0.032
NKKKNLRYKHRI	0.643 ± 0.1
NKNDINRMVQVS	0.6754 ± 0.0062
NKNNCKLISEKF	0.721 ± 0.026
NKNNITKKRKKD	0.749 ± 0.064
NKNRKNQNKGKR	0.743 ± 0.069
NKQKKKKSTKRN	0.704 ± 0.029

Sequence	protein stability index
NKVISETKKLDN	0.64983 ± 0.00019
NLAGLVREYSGY	0.684 ± 0.011
NLGRGYLVFRGM	0.709 ± 0.062
NLLPFLGPLPRS	0.781 ± 0.067
NLQKTRNRRTVE	0.643 ± 0.011
NNANDKKNKRKK	0.664 ± 0.044
NNEETIKQKNLQ	0.702 ± 0.025
NNRVVRGRKWGG	0.682 ± 0.015
NPFLHQSMGQLT	0.724 ± 0.078
NPGLGLSCPSPP	0.701 ± 0.043
NQERYKKIRSKQ	0.714 ± 0.054
NRAVTRKRKEEK	0.664 ± 0.03
NRGRIRARVNEA	0.708 ± 0.07
NRGTRQIIIKKK	0.653 ± 0.038
NRLPGNLKKKDN	0.687 ± 0.019
NRLRNAGEPTND	0.782 ± 0.069
NRYKINHRIKCK	0.576 ± 0.032
NRYRILDKLRRK	0.6618 ± 0.0026
NSHRYDSNIPDS	0.685 ± 0.057
NSLGRRRSYPTL	0.839 ± 0.039
NSLLSFLPDPFH	0.749 ± 0.0096
NSRASHPTNQII	0.789 ± 0.054
